First the molecules themselves.
B1: Decoy polypeptide S (Fc fusion)
chain: EDELQVIQPEKSVSVAAGESATLRCAMTSLIPVGPIMWFRGAGAGRELIYNQKEGHFPRVTTVSELTKRNNLDFSISISNITPADAGTYYCVKFRKGSPDDVEFKSGAGTELSVRAKPSDKTHTCPPCPAPEAAGAPSVFLFPPKPKDTLMISRTPEVTCVVVDVSHEDPEVKFNWYVDGVEVHNAKTKPREEQYASTYRVVSVLTVLHQDWLNGKEYKCKVSNKALPAPIEKTISKAKGQPREPQVYTLPPSREEMTKNQVSLTCLVKGFYPSDIAVEWESNGQPENNYKTTPPVLDSDGSFFLYSKLTVDKSRWQQGNVFSCSVMHEALHNHYTQKSLSLSPG
notes: also called wild type SIRPβ1
B2: Decoy polypeptide T (Fc fusion)
chain: EEELQVIQPDKSISVAAGESATLHCTVTSLIPVGPIQWFRGAGPGRELIYNQKEGHFPRVTTVSDLTKRNNMDFSIRISNITPADAGTYYCVKFRKGSPDHVEFKSGAGTELSVRAKPSDKTHTCPPCPAPEAAGAPSVFLFPPKPKDTLMISRTPEVTCVVVDVSHEDPEVKFNWYVDGVEVHNAKTKPREEQYASTYRVVSVLTVLHQDWLNGKEYKCKVSNKALPAPIEKTISKAKGQPREPQVYTLPPSREEMTKNQVSLTCLVKGFYPSDIAVEWESNGQPENNYKTTPPVLDSDGSFFLYSKLTVDKSRWQQGNVFSCSVMHEALHNHYTQKSLSLSPG
notes: also called wild type SIRPβ2
B3: Decoy polypeptide C (Fc fusion)
chain: EEELQIIQPEKLLLVTVGKTATLHCTITSLFPVGPIQWFRGVGPGRVLIYNQKDGPFPRVTTVSDGTKRNNMDFSIRISSITPADVGTYYCVKFRKGSPEDVEFKSGPGTEMALGAKPSDKTHTCPPCPAPEAAGAPSVFLFPPKPKDTLMISRTPEVTCVVVDVSHEDPEVKFNWYVDGVEVHNAKTKPREEQYASTYRVVSVLTVLHQDWLNGKEYKCKVSNKALPAPIEKTISKAKGQPREPQVYTLPPSREEMTKNQVSLTCLVKGFYPSDIAVEWESNGQPENNYKTTPPVLDSDGSFFLYSKLTVDKSRWQQGNVFSCSVMHEALHNHYTQKSLSLSPG
B4: Decoy polypeptide B (Fc fusion)
chain: B3 chain with K53R, S98T
B5: Decoy polypeptide G (Fc fusion)
chain: B3 chain with I36V, Q37L, K53R, D54Q, G66T, S98T
B6: Decoy polypeptide H (Fc fusion)
chain: B3 chain with V47E, Q52A, K53R, D54E, P56R, G66L
B7: Decoy polypeptide L (Fc fusion)
chain: B3 chain with I6L, V33P, S98I
B8: Decoy polypeptide D (Fc fusion)
chain: B3 chain with P56H
B9: Decoy polypeptide F (Fc fusion)
chain: B3 chain with L30H, P56H
B10: Decoy polypeptide J (Fc fusion)
chain: B3 chain with F31L, V47E, K53R, S98T
B11: Decoy polypeptide A (Fc fusion)
chain: B3 chain with I36V, Q37L, K53R, D54Q, G66T, V92I, D101N
notes: expressed in Expi293 cells
B12: Decoy polypeptide Q (Fc fusion)
chain: B2 chain with V6I, V27I, I31F, E47V, K53R, E54Q, H56P, L66T, V92I, H101D
B13: Decoy polypeptide P (Fc fusion)
chain: B1 chain with V6I, M27I, I31F, M37Q, E47V, K53R, E54Q, H56P, L66T, V92I
B14: Decoy polypeptide N (Fc fusion)
chain: B3 chain with I6M, V42A, K53R, V92I, S98I
B15: Decoy polypeptide E (Fc fusion)
chain: B3 chain with V42A, K53R, V92I, S98T
B16: Decoy polypeptide K (Fc fusion)
chain: B3 chain with I27L, F31L, Q37L, K53R, S98N
B17: Decoy polypeptide I (Fc fusion)
chain: B3 chain with K53R, D54E
B18: Decoy polypeptide M (Fc fusion)
chain: B3 chain with V33I, Q37L
B19: Decoy polypeptide U (Fc fusion)
chain: EEELQIIQPDKSVLVAAGETATLRCTITSLFPVGPIQWFRGAGPGRELIYNQREGPFPRVTTVSDTTKRNNMDFSIRIGAITPADAGTYYCVKFRKGSPDDVEFKSGAGTELSVRAKPSDKTHTCPPCPAPEAAGAPSVFLFPPKPKDTLMISRTPEVTCVVVDVSHEDPEVKFNWYVDGVEVHNAKTKPREEQYASTYRVVSVLTVLHQDWLNGKEYKCKVSNKALPAPIEKTISKAKGQPREPQVYTLPPSREEMTKNQVSLTCLVKGFYPSDIAVEWESNGQPENNYKTTPPVLDSDGSFFLYSKLTVDKSRWQQGNVFSCSVMHEALHNHYTQKSLSLSPG
notes: positive control

Where a chain is given by its changes, count along the chain named.

In the first test the target is T1, human CD47 (human, UniProt Q08722 19-135).
T1 construct: Soluble analyte in SPR; also called hCD47
T1 sequence (Q08722 other isoform, or with tags, fused parts or gaps limits assumed): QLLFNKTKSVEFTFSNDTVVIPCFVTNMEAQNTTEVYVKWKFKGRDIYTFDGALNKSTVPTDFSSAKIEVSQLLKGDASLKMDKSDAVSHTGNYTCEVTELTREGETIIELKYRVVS
Description: SPR, decoy captured on biotinylated Protein A (NLC chip), CD47 as analyte.
Regarding B1, the binding result was “no binding (tested: CD47 analyte up to 100 nM)”.

Consider B2, for which the binding result is reported as “no binding (tested: CD47 analyte up to 100 nM)”.

In a further test the target is T2, cynomolgus monkey CD47 (cynomolgus monkey, UniProt A0A2K5X523 19-135).
T2 construct: Soluble analyte in SPR; construct not described; also called Cyno CD47
The description is as above.
With B1, the binding result is on record as “no binding (tested: CD47 analyte up to 100 nM)”.

For B2, the binding result is reported as “no binding (tested: CD47 analyte up to 100 nM)”.

A further test concerns the target T3, mouse CD47 (mouse, UniProt Q61735 19-140, limits assumed).
T3 construct: Soluble analyte in SPR; construct not described
T3 sequence (looked up): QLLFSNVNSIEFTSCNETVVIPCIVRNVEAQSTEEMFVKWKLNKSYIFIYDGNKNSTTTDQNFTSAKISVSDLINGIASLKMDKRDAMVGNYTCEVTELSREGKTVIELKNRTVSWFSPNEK
The description is as above.
As to B1, the binding result is “no binding (tested: CD47 analyte up to 100 nM)”.

On to B2, for which the binding result is listed as “no binding (tested: CD47 analyte up to 100 nM)”.

Another test deals with T1, human CD47. The test is described as follows: SPR; ratio against decoy polypeptide R (wild type SIRPγ D1 domain). The protocol: (§1) The binding affinities each decoy polypeptides for CD47 from various species (e.g., human CD47, cynomolgus monkey CD47, and mouse CD47) were determined using indirect capture via biotinylated Protein A (via NLC chip). All experiments were performed at 25° C. using a Surface Plasmon Resonance (SPR)-based ProteOn XPR36 biosensor (BioRad, Inc., Hercules, Calif.). The running buffer was PBS at pH 7.4 with 0.01% Tween-20 (PBST+). All analytes were used at their nominal concentrations as determined by A₂₈₀ absorbance and using their molar calculated extinction coefficients.
(§2) As a first step, 15 μg/mL biotinylated protein A (Thermofisher) was injected at 30 μL/min for 120 seconds over the NLC chip to obtain an immobilization response of about 1000-1200 RUs. Next, decoy polypeptides (about 100-160 nM) were injected for 80 seconds at 30 μL/min. The CD47 analytes (from human, cynomolgus monkey, and mouse) were subsequently injected in a “one-shot” kinetic mode at nominal concentrations of 100 nM, 33 nM, 11 nM, 3.7 nM, 1.2 nM, and 0 nM. Association times were monitored for 60 seconds at 25 μL/min, and dissociation times were monitored for 500 seconds. The surfaces were regenerated with a 2:1 v/v blend of Pierce IgG elution buffer/4M NaCl. Biosensor data were double-referenced by subtracting the interspot data (containing no immobilized protein) from the reaction spot data (immobilized protein) and then subtracting the response of a buffer “blank” analyte injection from that of an analyte injection. Double-referenced data were fit globally to a simple Langmuir model and the KD value was calculated from the ratio of the apparent kinetic rate constants (KD=kd/kₐ).
In general terms: In SPR one partner is held on a chip, and binding of the other changes the refractive index at the surface.
As for B3, the “Fold improvement in KD vs wild type” value worked out at 9010 fold.

Take B4: the “Fold improvement in KD vs wild type” value was 6840 fold.

With B5, the “Fold improvement in KD vs wild type” value was 1400 fold.

In the case of B6, the “Fold improvement in KD vs wild type” value turned out to be 4530 fold.

Take B7: the “Fold improvement in KD vs wild type” value amounted to 545 fold.

For the molecule B8, the “Fold improvement in KD vs wild type” value amounted to 1220 fold.

In the case of B9, the “Fold improvement in KD vs wild type” value came out at 2490 fold.

On to B10, for which the “Fold improvement in KD vs wild type” value was determined as 7960 fold.

The target of another test is T1, human CD47. The test is described as follows: SPR, decoy captured on biotinylated Protein A, CD47 as analyte, 25 C. Here is the method:
as §1, §2
B11 registered a Kd of 74.8 nM.

In turn, B3 showed a Kd of 0.243 nM.

On to B4, for which the dissociation constant (Kd) is 0.32 nM.

Molecule B5 registered a Kd of 1.56 nM.

In turn, B6 registered a Kd of 0.483 nM.

B7 yielded a Kd of 4.02 nM.

On to B8, for which binding was characterised by a dissociation constant (Kd) of 1.8 nM.

As to B9, the Kd was determined as 0.881 nM.

B10 gave a Kd of 0.275 nM.

B12 registered a Kd of 0.213 nM.

For the molecule B13, the Kd was found to be 0.35 nM.

The target in another test is T1, human CD47. The test is described as follows: SPR, decoy captured on biotinylated Protein A (NLC chip), CD47 as analyte. The source holds these as a separate data set. The protocol:
as §1, §2
As to B14, the binding result is listed as “no binding (tested: CD47 analyte up to 100 nM)”.

Turning to B15, the binding result was “no binding (tested: CD47 analyte up to 100 nM)”.

Turning to B16, the binding result is given as “no binding (tested: CD47 analyte up to 100 nM)”.

On to B17, for which the binding result is reported as “no binding (tested: CD47 analyte up to 100 nM)”.

Turning to B18, the binding result was “no binding (tested: CD47 analyte up to 100 nM)”.

The next test addresses T1, human CD47. Description: SPR, decoy captured on biotinylated Protein A, CD47 as analyte, 25 C. The source holds these as a separate data set. Here is the method:
as §1, §2
B3 displayed a Kd of 0.243 nM.

With B10, the affinity, expressed as Kd, was 0.398 nM.

In turn, B12 registered a Kd of 0.0785 nM.

The molecule B19 showed a Kd of 0.193 nM.

Consider B13, for which binding was put at a Kd of 0.288 nM.

For the next test, the target named is T2, cynomolgus monkey CD47. The description is as above. Here is the method:
as §1, §2
For the molecule B3, binding was characterised by a dissociation constant (Kd) of 0.274 nM.

B10 had a Kd of 0.33 nM.

As for B12, the Kd was found to be 0.106 nM.

Consider B19, for which binding was characterised by a dissociation constant (Kd) of 0.224 nM.

B13 displayed a dissociation constant Kd of 0.334 nM.

The target of the next test is T3, mouse CD47. The description is as above. Here is the method:
as §1, §2
B3 displayed a Kd of 0.905 nM.

B10 came in with a Kd of 1.3 nM.

B12: binding was characterised by a dissociation constant (Kd) of 24.1 nM.

B19 returned a Kd of 7.82 nM.

Molecule B13 returned a Kd of 146 nM.

One may read the Kd as the constant that tells how readily two partners part at equilibrium.
